These results are taken from article PMC10314921, “Eltrombopag directly activates BAK and induces apoptosis” (Cell Death & Disease, 2023).

B1: BAK lacking its transmembrane domain (BAKΔTM), wild type [human] / itself (parent)
chain: EPALPSASEEQVAQDTEEVFRSYVFYRHQQEQEAEGVAAPADPEMVTLPLQPSSTMGQVGRQLAIIGDDINRRYDSEFQTMLQHLQPTAENAYEYFTKIATSLFESGINWGRVVALLGFGYRLALHVYQHGLTGFLGQVTRFVVDFMLHHCIARWIAQRGGWVAALNLGNG

Variants of B1 are the subject of this experiment. Kind of experiment: size exclusion chromatography (BAK oligomerization assay). Particulars: with itself; with Eltro (3.4 mM in panels a, b); CHAPS buffer, 1 h at 25 °C; Superdex75; parent: 54; read off a plot. Background: SEC sorts molecules by how far they enter the pores of the column.
On to chain 1 R141A, for which the screen value came out at 42%.

Consider chain 1 R141E, for which the screen value turned out to be 39%.
